The values below come from the domain aggregation screens of Martell et al. (2025).
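Further: 20 min heating vs room temperature control held 20 min.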

The nature of this series: soluble fraction after stress (log2 fold change); higher = more stays soluble; pooled small domains, quantitative proteomics. To be noted: stress: 75 degC.
For “HMEVKEVDYSAFMTMTEENSISKVEIEENQILFKKKGDDQTTYKTARMDDPALITRLHDQGVDFTGQ”, the “soluble fraction (log2)” value is 0.139.

As to “HMEVKRANRKERFLEALPYQFSRQDYLNIADKNKIPHKTAEGYITKFVDAGLIHREAHNNYTNPTKA”, the “soluble fraction (log2)” value was -0.0913.

Take “HMEVLPLHQVKLKYAEADTILIALKSAQSMLSPRGQLLADNRSQQIFVYDDEAHTATLIEAIKHLDQPL”: the “soluble fraction (log2)” value was -0.166.

Regarding “HMEVLTEPKVQSIDTHGEKSTFVIESPNPLQPDEIAKLVGADGISVRVDRTWLKSHRDSTWTYSILTVS”, the “soluble fraction (log2)” value was -0.118.

For “HMEVPFRNAAIFKTRSGDYAIRASYDGVDLGIKPIEKSTARTYFQLTDVKDKESFLNMTARNQYESEIAGI”, the “soluble fraction (log2)” value was -0.0612.

As for “HMEVPNLIGMTDKDLQRTYFQLPIEAAGDGSVVIKQLPEPGEKVKEGSVIRVLLG”, the “soluble fraction (log2)” value was determined as 0.193.

With “HMEVPQKTLEILEPWRGRKGFLIPVLQAVQHEFGYVPKEAIETVSREMKMPTAEIYGVVTFYAQFH”, the “soluble fraction (log2)” value was -0.571.

As to “HMEVSEGEIREKVESVFSSNPRQAYNYKQISKKLNINDKSERQIVWDVLRKLAGSGKIQEVEHGRFRARAE”, the “soluble fraction (log2)” value is -0.162.

For the sequence “HMEVSKETFPAYVAVDSLPVYKSASTSSSKVTTIDFGREVTVVETRGGWAKIQYGSYKGFAEIEGMSKN”, the “soluble fraction (log2)” value is -1.06.

On to “HMEVVELTDDEKMILATLHDGPVEIGHIKQVVGLSGKKWDAATKSLRQKGLINVVLENEQKLMVK”, for which the “soluble fraction (log2)” value is 0.492.

In the case of “HMEWGEADFVRLDEALATLRTLSPRQAEVVDLRFFSELSLEETAATLGLSLATVKRDWSVARLYLQRALS”, the “soluble fraction (log2)” value was determined as 0.198.

Take “HMEWTVEKQAAATLNAWMRKNSEMTSEKKVAVAAGIGPATVNRIMKAEVSTTIGVLSSLARAFGHEAYEMI”: the “soluble fraction (log2)” value is -0.0249.

“HMEYDEVVVVKQIIPKGKNTMVAHLKHLKEHGETGFLKQAVGYLKLHASEIPFSVDAVISEVH”: the “soluble fraction (log2)” value was -0.253.

Regarding “HMEYDYKVIDFFKDYYSYLNYQEIEPNILDKQLTTLTEEESAKIAGIMKLDYEDFTRGIEIVTGS”, the “soluble fraction (log2)” value was -0.536.

For “HMEYLIENYGSVINQARMKKGMTQEQLSSKTGVSQAYIRSIESQNMKPTDAVARKIEFELGIKLFE”, the “soluble fraction (log2)” value is -1.05.

On to “HMEYSKSIKRLREDKNLTVEELAKRLSLDVEEIQKAEDGEDVDQKTLEAIARYFGVQYDSLVEGTAKSK”, for which the “soluble fraction (log2)” value was -0.0335.

On to “HMEYTTEELDSLLKLYFQTHESINRNEFEQLTSYTRTTASRRLKTLVQAGKLQNIGLYRFPVYKPTEGNF”, for which the “soluble fraction (log2)” value was -2.82.

“HMEYYWHQLKGLEVVNTRGESLGRVRRLLETGANDVLVLEGEQERLIPYVPDTIKQVDLAKGLIEVAWDRD”: the “soluble fraction (log2)” value is -0.17.

In the case of “HMFAADIGVGIVDADSLRVRSEPSTGAPIVTSLLRGTQVTVQEKLDGWYRITYNDVSGFVSAEYLIFTADE”, the “soluble fraction (log2)” value was -0.358.

Consider “HMFAGEWKQDASGWWYQNDDGSFTRNGWQNISGKQYYFNENGYMLHDTTTPDGKQVGSDGSLV”, for which the “soluble fraction (log2)” value worked out at 0.0573.

As for “HMFAKVEGITGDILDKLQQQRGFLALSDKSSPEAIYDTFGVSKKVFKQAIGTLFKQQKISIEAEGIRLV”, the “soluble fraction (log2)” value was -1.56.

For “HMFASSADGVEGLKTNPIFASTKEKSDAGKLLYTRYLAIGIFRMLELAKATDPKALEALVEAGG”, the “soluble fraction (log2)” value came to 0.259.

In the case of “HMFDDEELDTFAGRQSDSYDQQEVEQFSDVLHTMRQDEVQAWWRSLTLRGISLPDELKDEVIML”, the “soluble fraction (log2)” value was -0.481.

For “HMFDDLSTNLRDLAHNYIEKYSPSKQQLKVFLLKKYLMKFKGSKTKKEISEIIDKIISNLEENKYLNDEL”, the “soluble fraction (log2)” value was determined as 0.36.

For the sequence “HMFDFMVLGQAIKKARESKEMTREQLAEILDVAPRHIQSIENEGQYPSFPLFIRLVTMFNISVDQY”, the “soluble fraction (log2)” value is -2.31.

Regarding “HMFDGNIKIVEDAFSVTIVARGTEVKISGDPENVYLASKTVEGLLTLIDKGEAITDQRVHYVIGLVREG”, the “soluble fraction (log2)” value is -2.45.

Regarding “HMFDGTLSIYPNPSKGIFNLDLLNVKDGEYTITVDNLLGQEVYSEIRNVINSSSKTLDLSNLTKGV”, the “soluble fraction (log2)” value was -0.204.

Consider “HMFDLKKIYGTILDETKSSLLLSTDDGREVQIIKTDGTEVLASGLGVYVEVAYRDETPDGYPIALTI”, for which the “soluble fraction (log2)” value is -0.41.

Consider “HMFDTVKIGKRIAELRKKRDMTQFELADRLGISYQAVSNWERGNSMPDIAKLPELAEIFGVTVDEILG”, for which the “soluble fraction (log2)” value was found to be 0.283.

As for “HMFEARNTTFSEDGKTITETYGVKRIETEFVSDSTIVQKLYDNDVLTKTKTITFSADGLSIKEDV”, the “soluble fraction (log2)” value is -0.0561.

For “HMFEDYNELDEYLETRFIPTYVLLKQRKNANGEIDHFPSIRLQHIMALKLSEAELEHVMNYLKEKNIRVG”, the “soluble fraction (log2)” value is -1.68.

With “HMFEKVKLTLTIPSKYSGSTYSALRNRMNKFSKEEWLSNGDLKIEIEVTGGQKTDIYTLINKLTNGEAIIE”, the “soluble fraction (log2)” value is -1.25.

As for “HMFELDELDLVILKNLANGLSKKQIRVKLKKMDLRPNSESAIDKRVSKLFDEFGAKNSTELVAKLIREGL”, the “soluble fraction (log2)” value is -2.71.

For the sequence “HMFELTVGTPIRVIREPYFGKLGTVTELPAQLMVVESGTEVRVLKAKIEGEGEVLVPRANVEIIATG”, the “soluble fraction (log2)” value is -1.38.

Turning to “HMFELVKISENIPIRDLAETLKTTPNEIIKELMVFGVLANINQTLNFDLASKVADKLGFEVELL”, the “soluble fraction (log2)” value is -0.266.

For the sequence “HMFEMPTSLVRTLSAIAIKQPVMQSEIIKLRGAGAYDHIKELIIRELVHRKEEGRSPILTTTKKFQEYFRL”, the “soluble fraction (log2)” value is -2.52.

Turning to “HMFERIYVFSRDGDIIELPKGSTVLDFAYHVHTHVGNRAQAARVNKRYVPLTYQLKTGEQVEIIIS”, the “soluble fraction (log2)” value was -1.44.

On to “HMFEYDEEEYEKLGPNADLTIKSMTDWGQSLVRKGVWSESDFEEFKIMGGTAQGLRALQKVRSYY”, for which the “soluble fraction (log2)” value was -0.649.

On to “HMFFAGLSPEAARTLDSLPLHSWSSVEQIARQAGLNIETVRKELGLLELSGIALSRQGRFRRA”, for which the “soluble fraction (log2)” value is -1.07.

For the sequence “HMFFFILNKGAKSGGEITHAVLNGSIVSKPAGWDAFHGLVLAKEKLSSEEIQRQMKELGVEMEIVPL”, the “soluble fraction (log2)” value is -2.4.

In the case of “HMFGDQMQSYLSRLSQIDVDIIALKYGDNFTYREIGLILEMSEDSVRQRAVRARKKLETMIQKG”, the “soluble fraction (log2)” value was -3.31.

On to “HMFGEDNLKSKEIKERVTEVAKHADDPVWIEARRKWKDENPDQNVKDYQQAYISGRIHELPWDVSYI”, for which the “soluble fraction (log2)” value came to 0.117.

Regarding “HMFGEKEFYQWIGKTAGEKFSGLPAAVIKSLYKYWREYNLSEEDIMGFIRQTELLPKRTPLDVELFFEK”, the “soluble fraction (log2)” value is -0.857.

As for “HMFGELTPDTAKRFLLTAREQEMASLIAQGLTNKEIAFRLGISEATVRTHIYNLFQKVGVQSRIELLNVLH”, the “soluble fraction (log2)” value is -1.69.

Take “HMFGNTGETSGTGVAFTRSPVDGENKIFGEFLVNAQGEDVVAGIRTPQPISEMEQAFPEVYSKFESVAEIL”: the “soluble fraction (log2)” value came out at 0.0261.

For “HMFHDALVSFAERRVIFMKELVNRLNEARKAYYEGESIMSDKEYDNLYDKLVKMELTTGVVLPNSPTEEVG”, the “soluble fraction (log2)” value is -1.33.

In the case of “HMFIEHSKYKLSFKYNQLGKISNVINSNNGIIMDKHFDQNITLLAKLTENTFQEIIKHFPTIIIKRL”, the “soluble fraction (log2)” value was -3.74.

With “HMFIEPPSLEELERRLRGRGTETDDVVDMRMRTALVELSQKMEYDYRLVNDDLDEATRQLVAYVNEIAEQ”, the “soluble fraction (log2)” value is -0.0555.

As for “HMFIPMTDAQRHLFANKLAKLPELSEYSRGTESYEDFAIRIADMLLEPPKFRMFYPLLEQLGF”, the “soluble fraction (log2)” value was -1.77.

For “HMFIVTDQMQRVLDYITEKEKATNNDLEELLGVKSTRIYTITRKLIQHNLIIPVGKGKNKYYIL”, the “soluble fraction (log2)” value was -0.902.

Take “HMFKDVTVPSVINKTEAEATNMLKGLNLVVSVEYEENANKSDGIVTAQNVNANKVIKEGETVTITVNKQP”: the “soluble fraction (log2)” value is 0.113.

Consider “HMFKNWMPFDEARIFVRKLKFNSHDEFRKYLKANEINIPSKPWSTYKGKGWVSIGDFLGTHR”, for which the “soluble fraction (log2)” value was -3.26.

As to “HMFLPGETFDVKIVKIGEGENQGVGYLDDGTMIVIENGRDHLNELARVIVTRVLQNSAGQMIFSDYEE”, the “soluble fraction (log2)” value was -2.21.

Take “HMFLTPLEETRLAIEEVVIAKNIAIDLFPRESAIRKQQHELIYHYHLKGLTVGTEKNKRLRIFPRGY”: the “soluble fraction (log2)” value turned out to be 0.0279.

Take “HMFLTSDEGKIMQLLEDKQRITRKDAQELLGVSQSTAGRILKTLVDNGQITQRGGGRTTRYELIK”: the “soluble fraction (log2)” value was determined as 0.104.

Consider “HMFMKNTEVALAIKGKFSNQTTITSKELVLFLSDLFPELSNKTIPWKINQLKAENLIYQTGRGIYTFN”, for which the “soluble fraction (log2)” value was -2.53.

Take “HMFMMVAGHLQIKNEKYYMVLELRTEQGERKTKWIGTGLAVKGNKRRAEAMLEETRTKYLSPV”: the “soluble fraction (log2)” value is -2.18.

For “HMFMPGTIIKQFRELRNYSQDYVSRKMGISQNAYSKIENNITQLTVTHVKQLSSILDVPIVELLR”, the “soluble fraction (log2)” value is -3.71.

With “HMFMSDDDIRILVKEWLQSQNRKSYQLAEEIGIRPQTFYAQMSVRKISANTKKALSRIIPGL”, the “soluble fraction (log2)” value was -0.769.

For “HMFMSKTAMVAIISEADKYGLFNIPEGLSVEKTADEIFEGHIEVDFDKLKNELDFVYKNEALEKQFQEN”, the “soluble fraction (log2)” value is -0.852.

On to “HMFNPEQDPKQLTGRERAVADLIGLGANNAEIAIRLSMSERTVKAHLTSIFQQLNVRDRVQLALVMNQL”, for which the “soluble fraction (log2)” value was -0.493.

As to “HMFPASQPVPTDLNQIVRAGLEVFSGRLEGIDVRVSLEPELPRVNVDPEHFKRIVVNLVDNAAEAMQNS”, the “soluble fraction (log2)” value came to 0.183.

For the sequence “HMFPATAPQLKAVHAILGKQGISDELDKLARVNEWLVGLNKEPVAAISELDKHTTSGLIDHLQGELNE”, the “soluble fraction (log2)” value amounted to 0.297.

Consider “HMFPDLSPEQQRIVDVLTKSNDLQLNQLSVKTGIPIGDITSILFQMEMMGVVKPMAGGNYHLL”, for which the “soluble fraction (log2)” value was -1.68.

With “HMFPDLTEDEQLIVDVLQRTGDLQINSLIVEANIPVNKMSEILFELEMKGVIRTLAGGVYQLL”, the “soluble fraction (log2)” value is -2.05.

Take “HMFPDRLRELRKGRNITLETLAEEMNKHLEPGQKPNTAAQIGNWERGDRSPSYIEVRKLADFFNVSMDFL”: the “soluble fraction (log2)” value was -0.586.

In the case of “HMFPELNAEETQVVQLLQKQTEGMQVNSLVVESNIPITRMSGILFELELKGIIRNYAGGVYKL”, the “soluble fraction (log2)” value is -3.2.

In the case of “HMFPELSEEAKVIVDALSKENDQQLNVLIANTGMAVGTMQAKLFELEMQGVVKPLAGSVYHLM”, the “soluble fraction (log2)” value worked out at 0.111.

Take “HMFPELTDDEQLIVSTLAKTNDMQINMLAVRTGIPVQRMSALLFSLEMKGVVKMYAGGTYHLL”: the “soluble fraction (log2)” value was -2.93.

Turning to “HMFPNQLLISRLSNQLSASERFAAVSSIAQLKNIDYDVLHVLVHTMNSDPNSNVRLAALEALSR”, the “soluble fraction (log2)” value was -0.459.
